Assay results taken from PMC8079461, “ApoA5 lowers triglyceride levels via suppression of ANGPTL3/8-mediated LPL inhibition” (Journal of Lipid Research, 2021).
Where “and” joins values, the source holds several entries; their conditions need not be identical. Equal values may be shown once.

B1: HSA-ApoA5 (HIS tag-mature HSA-PreScission cleavage site-mature human ApoA5, residues 24-366) (natural protein, UniProt Q6Q788 24-366, looked up)
chain: RKGFWDYFSQTSGDKGRVEQIHQQKMAREPATLKDSLEQDLNNMNKFLEKLRPLSGSEAPRLPQDPVGMRRQLQEELEEVKARLQPYMAEAHELVGWNLEGLRQQLKPYTMDLMEQVALRVQELQEQLRVVGEDTKAQLLGGVDEAWALLQGLQSRVVHHTGRFKELFHPYAESLVSGIGRHVQELHRSVAPHAPASPARLSRCVQVLSRKLTLKAKALHARIQQNLDQLREELSRAFAGTGTEEGAGPDPQMLSEEVRQRLQAFRQDTYLQIAAFTRAIDQETEEVQQQLAPPPPGHSAFAPEFQQTDSGKVLSKLQARLDDLWEDITHSLHDQGHSHLGDP
notes: mature human ApoA5, residues 24-366 of NP_443200.2; Secreted by a mouse IgG kappa signal peptide; source: HEK293, transient transfection, purified from culture media (Ni-NTA, Superdex 200); not shown: His tag, N-terminal, kept; mature human serum albumin (HSA), N-terminal, kept

How the values were obtained:
[1] = target: ANGPTL8 in human serum (human (endogenous in serum)) (UniProt Q6UXH0); test: affinity purification with mass spectrometry; immunoprecipitation with the anti-ANGPTL3/8 antibody from 1 ml pooled human serum (three pools); on-bead Trypsin/Lys-C digest; LC-MRM with 0.25 pmole stable isotope-labeled peptides, two peptides a protein
[2] = target: T1, ANGPTL3/8 complex containing a FLAG-tag sequence at the C terminus of ANGPTL3 (recombinant, human) (human, UniProt Q9Y5C1 17-460; Q6UXH0 22-198); test: cell-based or functional assay
T1 sequence (looked up) 1: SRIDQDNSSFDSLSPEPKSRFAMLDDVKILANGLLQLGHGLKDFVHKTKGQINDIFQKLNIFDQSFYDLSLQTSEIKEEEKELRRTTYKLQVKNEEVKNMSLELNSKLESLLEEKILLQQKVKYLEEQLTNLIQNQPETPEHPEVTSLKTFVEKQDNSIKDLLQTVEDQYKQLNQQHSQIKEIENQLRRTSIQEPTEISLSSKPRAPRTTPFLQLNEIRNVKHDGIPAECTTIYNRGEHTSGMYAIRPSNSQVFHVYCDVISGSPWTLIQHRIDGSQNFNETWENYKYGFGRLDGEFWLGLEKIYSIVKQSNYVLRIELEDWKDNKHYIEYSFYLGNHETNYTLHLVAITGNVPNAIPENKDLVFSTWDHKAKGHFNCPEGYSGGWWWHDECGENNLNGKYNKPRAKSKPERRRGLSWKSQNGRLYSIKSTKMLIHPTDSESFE
T1 sequence (looked up) 2: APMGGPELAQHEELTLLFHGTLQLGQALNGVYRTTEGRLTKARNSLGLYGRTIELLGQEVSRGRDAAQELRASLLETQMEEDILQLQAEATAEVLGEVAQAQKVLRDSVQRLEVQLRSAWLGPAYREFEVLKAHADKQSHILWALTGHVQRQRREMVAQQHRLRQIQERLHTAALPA

[3] = target: T1, ANGPTL3/8 complex containing a FLAG-tag …; test: BLI; Octet RED96e; FLAG-tagged ANGPTL3/8 immobilised by anti-FLAG antibody on streptavidin biosensors; 6.25-100 nM HSA-ApoA5 in solution; background reference subtraction; global fit, 1:1 binding model; conditions: both partners purified
[4] = target: T2, ANGPTL3/8 complex present in human serum (human (endogenous in serum)) (UniProt Q6UXH0); test: affinity purification with mass spectrometry; immunoprecipitation with the anti-ANGPTL3/8 antibody from 1 ml pooled human serum (three pools); on-bead Trypsin/Lys-C digest; LC-MRM with 0.25 pmole stable isotope-labeled peptides, two peptides a protein
T2 sequence (Q9Y5C1 17-460, looked up): T1 sequence (looked up) 1
T2 sequence (Q6UXH0 22-198, looked up): T1 sequence (looked up) 2

stoichiometry N [1] | EC50 of HSA-ApoA5 to block the inhibition of LPL activity by 0.3 nM ANGPTL3/8 (human LPL-stable expression cells, EnzChek substrate) [2] [nM] | Kd [3] [nM] | koff [3] [s⁻¹] | kon [3] [M⁻¹ s⁻¹] | protein ratio ApoA5/ANGPTL8 in the immunoprecipitate (ApoA5 per ANGPTL3/8 complex) [4] | Molecule
2.8 and 2.7 |  |  |  |  |  | ANGPTL3 in human serum (natural protein)
 | 21 | 0.52 | 0.000135 | 260000 | 0.5 and 0.53 | B1
